Laboratory results from PMC8273617.
One block for each substance: values may come before it.

Tests used:
[1] = target: Fc gamma receptor IIIA (FcγRIIIA/CD16) on PTA-6967 NK cells (human) (UniProt P08637)
[2] = target: Fc gamma receptor IIIA (FcγRIIIA/CD16) on PTA-6967 NK cells (human) (UniProt P08637); remark: listed apart in the source
[3] = target: VWF (Homo sapiens) (UniProt P04275); details: cited from earlier work
[4] = target: CD16 (Homo sapiens) (UniProt P08637); details: cited from earlier work
Sequence of CD16 (Homo sapiens) (P08637 17-254): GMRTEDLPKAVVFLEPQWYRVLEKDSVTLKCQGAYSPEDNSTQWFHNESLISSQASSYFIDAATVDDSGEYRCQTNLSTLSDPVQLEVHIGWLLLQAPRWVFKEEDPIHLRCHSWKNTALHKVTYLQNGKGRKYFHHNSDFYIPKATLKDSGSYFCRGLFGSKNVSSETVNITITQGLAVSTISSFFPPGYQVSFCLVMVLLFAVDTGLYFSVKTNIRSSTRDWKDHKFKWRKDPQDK

Sequence of Fc gamma receptor IIIA (FcγRIIIA/CD16) on PTA-6967 NK cells (human) (P08637 17-254): as above
Sequence of FVIII (P00451 20-2351): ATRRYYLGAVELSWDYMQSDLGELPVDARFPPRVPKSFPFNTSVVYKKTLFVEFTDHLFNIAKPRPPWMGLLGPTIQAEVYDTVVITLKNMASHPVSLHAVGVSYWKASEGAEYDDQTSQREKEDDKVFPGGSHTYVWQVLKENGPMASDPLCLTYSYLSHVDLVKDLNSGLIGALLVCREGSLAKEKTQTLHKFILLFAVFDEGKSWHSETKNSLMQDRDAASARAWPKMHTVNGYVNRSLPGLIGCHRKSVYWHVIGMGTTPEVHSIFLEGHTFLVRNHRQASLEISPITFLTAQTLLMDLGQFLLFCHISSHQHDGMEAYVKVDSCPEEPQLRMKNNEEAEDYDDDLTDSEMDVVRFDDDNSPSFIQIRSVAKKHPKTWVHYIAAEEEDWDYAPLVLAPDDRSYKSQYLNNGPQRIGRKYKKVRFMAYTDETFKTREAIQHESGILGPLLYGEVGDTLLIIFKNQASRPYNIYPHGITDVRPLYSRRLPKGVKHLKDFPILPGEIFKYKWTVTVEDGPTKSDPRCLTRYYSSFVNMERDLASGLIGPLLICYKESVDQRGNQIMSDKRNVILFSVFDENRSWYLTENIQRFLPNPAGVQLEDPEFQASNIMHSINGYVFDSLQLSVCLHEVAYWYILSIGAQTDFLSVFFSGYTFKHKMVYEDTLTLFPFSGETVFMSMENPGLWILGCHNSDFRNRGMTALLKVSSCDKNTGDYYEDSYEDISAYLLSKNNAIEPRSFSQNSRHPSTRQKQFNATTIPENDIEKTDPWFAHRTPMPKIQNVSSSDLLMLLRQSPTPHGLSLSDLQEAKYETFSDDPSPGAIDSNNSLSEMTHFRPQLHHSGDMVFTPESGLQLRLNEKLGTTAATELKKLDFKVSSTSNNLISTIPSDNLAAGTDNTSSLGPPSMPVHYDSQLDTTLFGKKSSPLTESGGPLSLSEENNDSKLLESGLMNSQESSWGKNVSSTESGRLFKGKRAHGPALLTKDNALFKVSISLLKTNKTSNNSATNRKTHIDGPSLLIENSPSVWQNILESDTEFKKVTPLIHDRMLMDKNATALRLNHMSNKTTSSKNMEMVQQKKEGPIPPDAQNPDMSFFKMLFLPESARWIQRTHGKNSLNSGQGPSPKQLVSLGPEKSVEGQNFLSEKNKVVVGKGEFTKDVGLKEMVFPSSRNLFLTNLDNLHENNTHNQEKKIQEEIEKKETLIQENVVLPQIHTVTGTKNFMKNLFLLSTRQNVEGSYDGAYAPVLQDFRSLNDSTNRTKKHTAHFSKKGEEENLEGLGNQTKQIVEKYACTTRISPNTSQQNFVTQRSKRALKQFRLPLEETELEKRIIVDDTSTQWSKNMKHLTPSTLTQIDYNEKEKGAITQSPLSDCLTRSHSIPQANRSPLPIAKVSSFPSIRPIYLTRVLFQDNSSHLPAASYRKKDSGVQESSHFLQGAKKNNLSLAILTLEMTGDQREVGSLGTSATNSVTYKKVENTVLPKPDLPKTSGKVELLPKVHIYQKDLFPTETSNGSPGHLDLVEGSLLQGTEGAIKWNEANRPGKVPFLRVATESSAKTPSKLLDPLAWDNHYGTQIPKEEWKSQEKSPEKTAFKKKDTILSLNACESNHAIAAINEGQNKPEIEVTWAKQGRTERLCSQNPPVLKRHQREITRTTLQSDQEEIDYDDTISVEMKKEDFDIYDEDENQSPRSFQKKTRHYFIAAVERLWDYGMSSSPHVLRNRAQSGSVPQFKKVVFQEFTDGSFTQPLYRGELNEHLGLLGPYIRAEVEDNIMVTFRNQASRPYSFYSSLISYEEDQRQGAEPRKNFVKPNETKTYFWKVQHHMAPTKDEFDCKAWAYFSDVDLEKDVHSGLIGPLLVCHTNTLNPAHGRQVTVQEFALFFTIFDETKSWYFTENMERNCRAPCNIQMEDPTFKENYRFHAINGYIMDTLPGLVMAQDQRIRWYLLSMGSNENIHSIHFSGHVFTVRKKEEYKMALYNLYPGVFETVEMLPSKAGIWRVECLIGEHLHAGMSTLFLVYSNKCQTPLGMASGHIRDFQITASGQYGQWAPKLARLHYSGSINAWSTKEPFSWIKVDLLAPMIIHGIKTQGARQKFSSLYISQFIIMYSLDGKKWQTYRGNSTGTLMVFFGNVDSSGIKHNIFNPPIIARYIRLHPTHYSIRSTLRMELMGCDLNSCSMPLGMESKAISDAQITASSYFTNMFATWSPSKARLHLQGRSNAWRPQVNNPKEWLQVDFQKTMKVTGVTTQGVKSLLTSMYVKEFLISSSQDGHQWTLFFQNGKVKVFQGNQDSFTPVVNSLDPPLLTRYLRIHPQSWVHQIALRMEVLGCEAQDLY

EC50 of IFNγ secretion (ELISA) by CD16^+ NK cells (PTA-6967), overnight, rFVIIIFc 250 nM to 7.6 pM (Figure 2B) [1]: 6.4 nM
surface CD107a (LAMP1), % LAMP1^+ PTA-6967 NK cells by flow cytometry after 6 hours with 250 nM rFVIIIFc, against untreated cells (Figure 2E) [2]: 8 fold
Substance: recombinant Factor VIII Fc-fusion protein (rFVIIIFc) (Fc fusion)

Substance: FVIII (from UniProt P00451)
Kd [3]: 0.0002 µM

Substance: IgG1 Fc Fc (from UniProt P01857)
Kd [4]: 1 µM
